Results taken from PMC7921785.

Biological target: T1, rPcDp1 (recombinant Dp1) (Pseudosciaena crocea (large yellow …, UniProt D2CFQ6 1-412))
T1 sequence: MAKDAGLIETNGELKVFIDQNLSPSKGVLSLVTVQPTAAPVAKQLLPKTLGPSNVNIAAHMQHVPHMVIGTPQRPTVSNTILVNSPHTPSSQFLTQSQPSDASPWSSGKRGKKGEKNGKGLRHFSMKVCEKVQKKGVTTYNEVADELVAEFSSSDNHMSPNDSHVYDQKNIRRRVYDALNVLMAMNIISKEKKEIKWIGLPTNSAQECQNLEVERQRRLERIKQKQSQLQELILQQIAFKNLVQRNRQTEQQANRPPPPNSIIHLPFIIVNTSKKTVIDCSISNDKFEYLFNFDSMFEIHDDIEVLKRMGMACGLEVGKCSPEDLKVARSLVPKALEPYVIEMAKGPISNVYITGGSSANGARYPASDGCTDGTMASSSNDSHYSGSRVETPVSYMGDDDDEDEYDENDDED
Test: EMSA

B1: wE2F (WE2Fsite) (dsDNA)
DNA 1: GAGATGACGTAGTTTTCGCGCGAAACTAG
DNA 2: CTAGTTTCGCGCGAAAACTACGTCATCTC
**Q.** Does B1 bind?
**A.** binds
